In PMC6079037:
“And” between values parts separate entries of the source, which are not always exact repeats. Equal values may be shown once. Each block holds one substance with its values, some of them ahead of it.

Experiments:
[1] = target: HmTSPcc, 25aa synthetic peptide corresponding to HmTSP residues 249-273 (Hydra magnipapillata); assay: AUC; sedimentation equilibrium; HmTSPcc 400 uM in PBS, 20 °C, 30,000-46,000 rpm; fitted to a single, ideal species model
[2] = target: NoHmTSP.V5, truncated HmTSP comprising the N-terminal domain plus the putative oligomerization region (aa 1-296) (Hydra magnipapillata); assay: non-reducing SDS-PAGE and immunoblot; V5-tagged proteins from conditioned media of transfected COS7 cells, collected on Talon resin, boiled in SDS sample buffer without DTT; 7% SDS-polyacrylamide gels; V5 antibody blot
[3] = target: full-length HmTSP-His (Hydra magnipapillata thrombospondin) (Hydra magnipapillata); assay: non-reducing SDS-PAGE and immunoblot; HmTSP-His from lysates of transfected HEK293T cells, collected on Ni-NTA, eluted in non-reducing SDS sample buffer; 4-20% gradient gels; anti-penta-His blot; laminin chains and prestained markers as size references

stoichiometry N (x monomer mass) [1]: 2.98
Substance: HmTSPcc, 25aa synthetic peptide corresponding to HmTSP residues 249-273

stoichiometry N [2]: 5 and 4
Substance: NoHmTSP.V5, truncated HmTSP comprising the N-terminal domain plus the putative oligomerization region (aa 1-296) (domain or fragment)

stoichiometry N [3]: > 4
Substance: full-length HmTSP-His (Hydra magnipapillata thrombospondin) (natural protein)
